Laboratory results: US20110288001A1, “BIOLOGICALLY ACTIVE PROTEINS ACTIVATABLE BY PEPTIDASE” (priority 2008, published 2011)

Assays:
[1] = in vivo; cited from earlier work
[2] = in vivo; cited from earlier work; remark: listed apart in the source
[3] = molecular target: human GLP1 receptor (human) (UniProt P43220); assay: cell-based or functional assay
[4] = test system: PB0967, GLP1-ELP construct with Met-Ala-Ala at the N-terminus (Met removed by E. coli), not treated with DPP-IV

UniProt P43220, sequence (P43220 24-463): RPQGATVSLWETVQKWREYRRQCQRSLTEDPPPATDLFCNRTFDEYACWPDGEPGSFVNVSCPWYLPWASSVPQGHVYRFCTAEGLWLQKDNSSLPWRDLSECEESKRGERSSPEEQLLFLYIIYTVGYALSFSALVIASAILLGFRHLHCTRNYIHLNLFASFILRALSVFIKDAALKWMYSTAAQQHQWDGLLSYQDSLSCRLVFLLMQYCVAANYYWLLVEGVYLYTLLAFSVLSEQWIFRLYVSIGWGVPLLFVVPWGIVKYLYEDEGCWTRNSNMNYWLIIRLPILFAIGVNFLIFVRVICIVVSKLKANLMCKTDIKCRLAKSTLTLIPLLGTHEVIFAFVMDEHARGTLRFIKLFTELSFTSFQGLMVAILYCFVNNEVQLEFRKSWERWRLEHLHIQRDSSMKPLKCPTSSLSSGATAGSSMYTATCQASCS

GLP-1: native glucagon-like peptide-1, physiological incretin originating from preproglucagon
plasma half-life (t1/2) [1]: 1 to 2 min

HSDAVFTDNYTRLRKQMAVKKYLNSILN [VIP]
half-life in the blood [2]: about two

Exendin-4 peptide
EC50 in cAMP assay [3]: 1 nM

dipeptidyl peptidase-4 (DPP-IV)
gain of cAMP activity of the substrate after DPP-IV treatment (enzyme processing) [4]: is activated if it is first treated with DPP-IV to remove the remaining Ala-Ala and expose the N-terminal His of GLP1
